For one assay, the target named is HLA-B*08:01 (Homo sapiens, UniProt P01889). As to the kind of experiment: MHC binding assay (UV-ligand exchange, beta2m ELISA). Particulars: MHC class I binding score; binding to HLA-B*08:01 ranged by peptide exchange yield (UV-ligand exchange, β2m ELISA). In short, it runs like this: (§1)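 Peptide–HLA complexes generated by UV-ligand exchange of a UV-cleavable peptide for the test peptide; exchange yield read by β2m ELISA on streptavidin capture (samples diluted 100-fold, 1 h 37 °C), HRP anti-β2m, TMB, A450. Quantified against refolded HLA-A*02:01/MLA-001 monomer standards (15-500 ng/ml).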

For assay [1], the system named is CD8+ T cells of healthy HLA-B*08 donors. As to the kind of experiment: In vitro T-cell priming assay with aAPCs loaded with peptide/MHC complexes and anti-CD28 antibody, pMHC multimer readout. The settings on record: in vitro immunogenicity, HLA class I peptides, Table 10B. The assay is classed as cell-based, human. An excerpt: In order to obtain information regarding the immunogenicity of the TUMAPs of the present invention, the inventors performed investigations using an in vitro T-cell priming assay based on repeated stimulations of CD8+ T cells with artificial antigen presenting cells (aAPCs) loaded with peptide/MHC complexes and anti-CD28 antibody.
In order to perform in vitro stimulations by artificial antigen presenting cells loaded with peptide-MHC complex (pMHC) and anti-CD28 antibody, the inventors first isolated CD8+ T cells from fresh HLA-B*08 leukapheresis products via positive selection using CD8 microbeads (Miltenyi Biotec, Bergisch-Gladbach, Germany) of healthy donors obtained from the University clinics Mannheim, Germany, after informed consent.
PBMCs and isolated CD8+ lymphocytes were incubated in T-cell medium (TCM) until use consisting of RPMI-Glutamax (Invitrogen, Karlsruhe, Germany) supplemented with 10% heat inactivated human AB serum (PAN-Biotech, Aidenbach, Germany), 100 U/ml Penicillin/100 μg/ml Streptomycin (Cambrex, Cologne, Germany), 1 mM sodium pyruvate (CC Pro, Oberdorla, Germany), 20 μg/ml Gentamycin (Cambrex). 2.5 ng/ml IL-7 (PromoCell, Heidelberg, Germany) and 10 U/ml IL-2 (Novartis Pharma, Nornberg, Germany) were also added to the TCM at this step.
Generation of pMHC/anti-CD28 coated beads, T-cell stimulations and readout was performed in a highly defined in vitro system using four different pMHC molecules per stimulation condition and 8 different pMHC molecules per readout condition.
The purified co-stimulatory mouse IgG2a anti human CD28 Ab 9.3 (Jung et al., 1987) was chemically biotinylated using Sulfo-N-hydroxysuccinimidobiotin as recommended by the manufacturer (Perbio, Bonn, Germany). Beads used were 5.6 μm diameter streptavidin coated polystyrene particles (Bangs Laboratories, Illinois, USA).
800.000 beads/200 μl were coated in 96-well plates in the presence of 4×12.5 ng different biotin-pMHC, washed and 600 ng biotin anti-CD28 were added subsequently in a volume of 200 μl. Stimulations were initiated in 96-well plates by co-incubating 1×10^6 CD8+ T cells with 2×10^5 washed coated beads in 200 μl TCM supplemented with 5 ng/ml IL-12 (PromoCell) for 3 days at 37° C. Half of the medium was then exchanged by fresh TCM supplemented with 80 U/ml IL-2 and incubating was continued for 4 days at 37° C. This stimulation cycle was performed for a total of three times. For the pMHC multimer readout using 8 different pMHC molecules per condition, a two-dimensional combinatorial coding approach was used as previously described (Andersen et al., 2012) with minor modifications encompassing coupling to 5 different fluorochromes. Finally, multimeric analyses were performed by staining the cells with Live/dead near IR dye (Invitrogen, Karlsruhe, Germany), CD8-FITC antibody clone SK1 (BD, Heidelberg, Germany) and fluorescent pMHC multimers. For analysis, a BD LSRII SORP cytometer equipped with appropriate lasers and filters was used. Peptide specific cells were calculated as percentage of total CD8+ cells. Evaluation of multimeric analysis was done using the FlowJo software (Tree Star, Oregon, USA). In vitro priming of specific multimer+CD8+ lymphocytes was detected by comparing to negative control stimulations.

The next assay has as its target HLA-B*44:05 (Homo sapiens, UniProt P01889, A223V/A65T/A93T/A95T/D201E/D98Y/E176V/E187L/E204Q/E69K/G107R/H137Y/K202T/L105A/L119I/N104T/N87E/Q56L/Q94N/R106L/R155S/R180D/S101N/S121R/S35A/S48T/T118I/V36M/W191S/Y91S). As to the kind of experiment: MHC binding assay (UV-ligand exchange, beta2m ELISA). Particulars: Table 11B, peptide exchange yield. The method in brief:
as §1
On the technique in general: ELISA stands for enzyme-linked immunosorbent assay.

For another assay, the target named is HLA-A*02:01 (Homo sapiens, UniProt P04439, D140Y/D185E/D98H/E176V/E277Q/G131W/G231S/I119V/I121R/I166T/I218V/L300P/L318F/N151K/N90K/P208A/P217A/Q86G/Q94H/R138H/R169H/T345S). The description is as above. Particulars: Table 11C, peptide exchange yield. In short, it runs like this: as §1

Take “74 (RLKLRYEGL; listed as Homo sapiens) [compound 74]”: the Peptide exchange result in the assay with HLA-B*08:01 was “+++ (50% = +++)”. Further, the “Wells positive [%]” value in assay [1] is “++ (20%-49% = ++)”.

“75 (YARLKNVLL; listed as Homo sapiens) [compound 75]”: the Peptide exchange result in the assay with HLA-B*08:01 is “+++ (50% = +++)”. Also, in assay [1], the “Wells positive [%]” value is recorded as “+++ (50%-69%= +++)”.

For the substance “76 (HPRLKVNLL; listed as Homo sapiens) [compound 76]”, the Peptide exchange entry with HLA-B*08:01 was “+++ (50% = +++)”. Further, the “Wells positive [%]” value in assay [1] is “+ (<20% = +)”.

Take “78 (DGHMKVFSL; listed as Homo sapiens) [compound 78]”: the Peptide exchange entry with HLA-B*08:01 was “++ (20% = ++)”. The “Wells positive [%]” value in assay [1] is on record as “++ (20%-49% = ++)”.

With “80 (EVYLRMYQL; listed as Homo sapiens) [compound 80]”, the Peptide exchange entry with HLA-B*08:01 was “+++ (50% = +++)”. In assay [1], the “Wells positive [%]” value is reported as “+++ (50%-69%= +++)”.

In the case of “82 (SIRKRPML; listed as Homo sapiens) [compound 82]”, in the assay with HLA-B*08:01, the Peptide exchange entry was “++ (20% = ++)”. In addition, the “Wells positive [%]” value in assay [1] was “+ (<20% = +)”.

On to “83 (FVLLRSVDL; listed as Homo sapiens) [compound 83]”, for which, in the assay with HLA-B*08:01, the Peptide exchange entry was “+++ (50% = +++)”. In addition, the “Wells positive [%]” value in assay [1] is “+++ (50%-69%= +++)”.

For “86 (RPIHHPLVL; listed as Homo sapiens) [compound 86]”, the Peptide exchange result in the assay with HLA-B*08:01 was “++ (20% = ++)”. Besides, in assay [1], the “Wells positive [%]” value is on record as “+ (<20% = +)”.

Consider “89 (VPYTKVQL; listed as Homo sapiens) [compound 89]”, for which, in the assay with HLA-B*08:01, the Peptide exchange result is given as “+++ (50% = +++)”. Moreover, the “Wells positive [%]” value in assay [1] is listed as “+ (<20% = +)”.

As to “290 (EEFLTPKKL; listed as Homo sapiens) [compound 290]”, in the assay with HLA-B*44:05, the Peptide exchange result was “+++ (≥50% = +++)”.

With “291 (YVYANHFTEA; listed as Homo sapiens) [compound 291]”, the Peptide exchange result in the assay with HLA-A*02:01 is listed as “++++ (≥75% = ++++)”.

The values above are taken from patent publication US11433099B2, “Immunotherapy with B*08 restricted peptides and combination of peptides against cancers and related methods” (Immatics Biotechnologies GmbH, priority 2018, dated 2022).
